Measurements as given in EP4786492A1.
Where a chain is given by its changes, count along the chain named.

B1: Hab015VL5VH1b-hFc (scFv, part only; not given: VL-VH linker and human IgG1 Fc, V domains shown, not shown: another chain or arm of the molecule; a dimerising Fc or GST; small tags and cut ends)
VL: NIQMTQSPSSLSASVGDRVTITCKASENVGTYVSWYQQKPGKSPKLLIYGASNRYTGVPSRFSGSGSGTDFTLTISSLQPEDFATYYCGQFYSFPSTFGGGTKVEIK
VH: EVQLVESGGGLVKPGGSLRLSCAASGITFSNFWMNWVRQAPGKGLEWVGQIRLKSEDYATHYAESVKGRFTISREDSKNTVYLQMNSLKTEDTAVYYCTTGYYFDYWGQGTTVTVSS
B2: Hab015VL5VH5a-hFc (scFv, part only; not given: scFv linker and human IgG1 Fc, V domains shown, not shown: another chain or arm of the molecule; a dimerising Fc or GST; small tags and cut ends)
VL: B1 VL
VH: B1 VH with A23V, E56D

target: human delta-like ligand 3 (DLL3) on SHP77 cells (human) (UniProt Q9NYJ7); experiment: FACS on SHP77 cells
Sequence (Q9NYJ7 27-618, stated change not applied): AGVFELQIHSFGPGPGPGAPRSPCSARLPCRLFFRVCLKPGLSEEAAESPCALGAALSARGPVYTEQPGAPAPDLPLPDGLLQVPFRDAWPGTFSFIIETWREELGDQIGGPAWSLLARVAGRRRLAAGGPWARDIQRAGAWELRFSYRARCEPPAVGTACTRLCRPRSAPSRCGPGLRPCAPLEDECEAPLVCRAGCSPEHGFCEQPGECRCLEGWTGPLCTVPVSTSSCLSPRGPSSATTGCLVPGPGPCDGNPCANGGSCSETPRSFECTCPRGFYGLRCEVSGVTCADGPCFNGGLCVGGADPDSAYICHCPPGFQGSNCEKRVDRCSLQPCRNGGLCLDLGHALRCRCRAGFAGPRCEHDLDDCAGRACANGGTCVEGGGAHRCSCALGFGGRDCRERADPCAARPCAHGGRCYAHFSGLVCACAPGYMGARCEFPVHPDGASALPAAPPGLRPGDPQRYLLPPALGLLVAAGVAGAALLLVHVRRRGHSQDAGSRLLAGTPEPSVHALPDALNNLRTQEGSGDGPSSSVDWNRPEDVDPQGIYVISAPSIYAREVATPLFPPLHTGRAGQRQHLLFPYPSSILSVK

Binder | MFI at 0.00128 nM [MFI] | MFI at 0.0064 nM [MFI] | MFI at 0.032 nM [MFI] | MFI at 0.16 nM [MFI] | MFI at 0.8 nM [MFI] | MFI at 4 nM [MFI] | MFI at 20 nM [MFI] | MFI at 100 nM [MFI]
B1 | 102 | 118 | 178 | 356 | 632 | 714 | 844 | 1030
B2 | 106 | 122 | 189 | 405 | 666 | 785 | 876 | 1060

target: DLL3 endogenously expressed on NCI-H82 cells (UniProt Q9NYJ7); experiment: FACS on NCI-H82 cells; antibody 4 nM
Sequence (Q9NYJ7 27-618): as the sequence (Q9NYJ7 27-618, stated change not applied) above

Binder | MFI
B1 | 745
B2 | 848

target: DLL3 endogenously expressed on NCI-H82 cells (UniProt Q9NYJ7); experiment: FACS on NCI-H82 cells; antibody 20 nM

Binder | MFI
B1 | 838
B2 | 929

target: DLL3 endogenously expressed on NCI-H82 cells (UniProt Q9NYJ7); experiment: FACS on NCI-H82 cells; antibody 0.8 nM

Binder | MFI
B1 | 711
B2 | 779

target: DLL3 endogenously expressed on NCI-H82 cells (UniProt Q9NYJ7); experiment: FACS on NCI-H82 cells; antibody 100 nM

Binder | MFI
B1 | 983
B2 | 1110

target: DLL3 endogenously expressed on NCI-H82 cells (UniProt Q9NYJ7); experiment: FACS on NCI-H82 cells; antibody 0.16 nM

Binder | MFI
B1 | 426
B2 | 473

target: human DLL3 protein expressed on CHO-K1 recombinant cells (human DLL3 extracellular segment fused to EpCAM transmembrane and intracellular regions) (human) (UniProt Q9NYJ7); experiment: FACS, CHO-K1 hDLL3 cells, 4 nM antibody
Sequence (Q9NYJ7 other isoform, or with tags, fused parts or gaps limits assumed): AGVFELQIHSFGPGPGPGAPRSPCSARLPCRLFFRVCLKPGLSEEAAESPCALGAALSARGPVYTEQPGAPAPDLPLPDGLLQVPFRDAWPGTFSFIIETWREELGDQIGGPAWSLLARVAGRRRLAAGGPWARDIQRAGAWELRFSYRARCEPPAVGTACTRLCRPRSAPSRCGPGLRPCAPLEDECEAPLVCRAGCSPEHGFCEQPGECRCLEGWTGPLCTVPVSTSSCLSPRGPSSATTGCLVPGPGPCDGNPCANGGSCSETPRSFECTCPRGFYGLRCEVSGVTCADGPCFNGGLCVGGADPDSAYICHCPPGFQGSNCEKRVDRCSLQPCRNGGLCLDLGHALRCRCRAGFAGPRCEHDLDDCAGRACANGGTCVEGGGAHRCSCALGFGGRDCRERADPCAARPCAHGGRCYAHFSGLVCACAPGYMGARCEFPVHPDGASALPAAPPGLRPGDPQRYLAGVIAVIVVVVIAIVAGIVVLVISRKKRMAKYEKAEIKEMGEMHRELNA

Binder | MFI [MFI]
B1 | 10300
B2 | 10700

target: mouse DLL3 on CHO-K1-mDLL3 cells (mouse) (UniProt O88516); experiment: FACS, CHO-K1-mDLL3 cells, 4 nM antibody
Sequence (O88516 other isoform, or with tags, fused parts or gaps limits assumed): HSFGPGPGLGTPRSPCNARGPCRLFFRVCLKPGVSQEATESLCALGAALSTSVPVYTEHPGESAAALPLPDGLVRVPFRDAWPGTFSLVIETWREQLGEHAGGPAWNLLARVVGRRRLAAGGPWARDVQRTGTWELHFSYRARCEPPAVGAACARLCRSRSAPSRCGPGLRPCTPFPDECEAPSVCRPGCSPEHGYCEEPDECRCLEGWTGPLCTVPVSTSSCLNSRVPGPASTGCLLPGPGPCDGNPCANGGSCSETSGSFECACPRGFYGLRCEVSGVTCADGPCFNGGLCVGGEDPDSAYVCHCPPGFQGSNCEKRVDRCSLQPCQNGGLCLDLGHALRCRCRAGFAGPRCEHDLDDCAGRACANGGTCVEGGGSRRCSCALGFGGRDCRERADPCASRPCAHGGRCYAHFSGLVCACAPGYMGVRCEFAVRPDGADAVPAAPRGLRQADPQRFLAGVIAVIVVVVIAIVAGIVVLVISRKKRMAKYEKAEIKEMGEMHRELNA

Binder | MFI [MFI]
B1 | 1160
B2 | 1240

target: DLL3 endogenously expressed on NCI-H82 cells (UniProt Q9NYJ7); experiment: FACS on NCI-H82 cells; antibody 0.032 nM

Binder | MFI
B1 | 212
B2 | 230

target: human DLL3 protein expressed on CHO-K1 recombinant cells (human DLL3 extracellular segment fused to EpCAM transmembrane and intracellular regions) (human) (UniProt Q9NYJ7); experiment: FACS, CHO-K1 hDLL3 cells, 20 nM antibody

Binder | MFI [MFI]
B1 | 11500
B2 | 12000

target: mouse DLL3 on CHO-K1-mDLL3 cells (mouse) (UniProt O88516); experiment: FACS, CHO-K1-mDLL3 cells, 20 nM antibody

Binder | MFI [MFI]
B1 | 1350
B2 | 1440

target: DLL3 endogenously expressed on NCI-H82 cells (UniProt Q9NYJ7); experiment: FACS on NCI-H82 cells; antibody 0.0064 nM

Binder | MFI
B1 | 139
B2 | 139

target: human DLL3 protein expressed on CHO-K1 recombinant cells (human DLL3 extracellular segment fused to EpCAM transmembrane and intracellular regions) (human) (UniProt Q9NYJ7); experiment: FACS, CHO-K1 hDLL3 cells, 0.8 nM antibody

Binder | MFI [MFI]
B1 | 4100
B2 | 4640

target: human DLL3 protein expressed on CHO-K1 recombinant cells (human DLL3 extracellular segment fused to EpCAM transmembrane and intracellular regions) (human) (UniProt Q9NYJ7); experiment: FACS, CHO-K1 hDLL3 cells, 100 nM antibody

Binder | MFI [MFI]
B1 | 11800
B2 | 12000

target: mouse DLL3 on CHO-K1-mDLL3 cells (mouse) (UniProt O88516); experiment: FACS, CHO-K1-mDLL3 cells, 0.8 nM antibody

Binder | MFI [MFI]
B1 | 884
B2 | 953

target: mouse DLL3 on CHO-K1-mDLL3 cells (mouse) (UniProt O88516); experiment: FACS, CHO-K1-mDLL3 cells, 100 nM antibody

Binder | MFI [MFI]
B1 | 1460
B2 | 1580

target: DLL3 endogenously expressed on NCI-H82 cells (UniProt Q9NYJ7); experiment: FACS on NCI-H82 cells; antibody 0.00128 nM

Binder | MFI
B1 | 121
B2 | 122

target: human DLL3 protein expressed on CHO-K1 recombinant cells (human DLL3 extracellular segment fused to EpCAM transmembrane and intracellular regions) (human) (UniProt Q9NYJ7); experiment: FACS, CHO-K1 hDLL3 cells, 0.16 nM antibody

Binder | MFI [MFI]
B1 | 980
B2 | 1030

target: mouse DLL3 on CHO-K1-mDLL3 cells (mouse) (UniProt O88516); experiment: FACS, CHO-K1-mDLL3 cells, 0.16 nM antibody

Binder | MFI [MFI]
B1 | 361
B2 | 424

target: human DLL3 protein expressed on CHO-K1 recombinant cells (human DLL3 extracellular segment fused to EpCAM transmembrane and intracellular regions) (human) (UniProt Q9NYJ7); experiment: FACS, CHO-K1 hDLL3 cells, 0.032 nM antibody

Binder | MFI [MFI]
B1 | 341
B2 | 339

target: monkey DLL3 on CHO-K1-cyno DLL3 cells (cynomolgus monkey); experiment: FACS, CHO-K1-cyno DLL3 cells, 4 nM antibody
Sequence (chain, as listed by the source limits assumed): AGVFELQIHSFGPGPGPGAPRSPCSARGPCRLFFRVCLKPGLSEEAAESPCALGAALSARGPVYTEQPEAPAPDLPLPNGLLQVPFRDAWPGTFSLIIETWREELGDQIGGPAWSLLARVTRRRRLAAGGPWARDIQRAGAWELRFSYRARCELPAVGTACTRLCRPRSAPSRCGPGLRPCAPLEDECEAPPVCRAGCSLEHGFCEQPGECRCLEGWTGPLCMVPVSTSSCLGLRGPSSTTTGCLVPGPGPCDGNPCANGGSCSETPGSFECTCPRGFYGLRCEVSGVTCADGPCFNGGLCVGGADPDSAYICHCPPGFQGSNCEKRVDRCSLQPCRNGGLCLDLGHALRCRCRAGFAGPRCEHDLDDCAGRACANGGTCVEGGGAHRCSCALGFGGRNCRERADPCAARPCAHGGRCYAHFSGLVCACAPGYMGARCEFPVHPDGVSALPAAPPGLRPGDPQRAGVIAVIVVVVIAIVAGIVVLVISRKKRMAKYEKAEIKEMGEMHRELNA

Binder | MFI [MFI]
B1 | 6500
B2 | 6610

target: mouse DLL3 on CHO-K1-mDLL3 cells (mouse) (UniProt O88516); experiment: FACS, CHO-K1-mDLL3 cells, 0.032 nM antibody

Binder | MFI [MFI]
B1 | 186
B2 | 199

target: human DLL3 protein expressed on CHO-K1 recombinant cells (human DLL3 extracellular segment fused to EpCAM transmembrane and intracellular regions) (human) (UniProt Q9NYJ7); experiment: FACS, CHO-K1 hDLL3 cells, 0.0064 nM antibody

Binder | MFI [MFI]
B1 | 174
B2 | 166

target: monkey DLL3 on CHO-K1-cyno DLL3 cells (cynomolgus monkey); experiment: FACS, CHO-K1-cyno DLL3 cells, 20 nM antibody

Binder | MFI [MFI]
B1 | 6970
B2 | 7090

target: mouse DLL3 on CHO-K1-mDLL3 cells (mouse) (UniProt O88516); experiment: FACS, CHO-K1-mDLL3 cells, 0.0064 nM antibody

Binder | MFI [MFI]
B1 | 131
B2 | 139

target: human DLL3 protein expressed on CHO-K1 recombinant cells (human DLL3 extracellular segment fused to EpCAM transmembrane and intracellular regions) (human) (UniProt Q9NYJ7); experiment: FACS, CHO-K1 hDLL3 cells, 0.00128 nM antibody

Binder | MFI [MFI]
B1 | 137
B2 | 134

target: monkey DLL3 on CHO-K1-cyno DLL3 cells (cynomolgus monkey); experiment: FACS, CHO-K1-cyno DLL3 cells, 0.8 nM antibody

Binder | MFI [MFI]
B1 | 4140
B2 | 4590

target: monkey DLL3 on CHO-K1-cyno DLL3 cells (cynomolgus monkey); experiment: FACS, CHO-K1-cyno DLL3 cells, 100 nM antibody

Binder | MFI [MFI]
B1 | 7310
B2 | 7380

target: mouse DLL3 on CHO-K1-mDLL3 cells (mouse) (UniProt O88516); experiment: FACS, CHO-K1-mDLL3 cells, 0.00128 nM antibody

Binder | MFI [MFI]
B1 | 122
B2 | 122

target: monkey DLL3 on CHO-K1-cyno DLL3 cells (cynomolgus monkey); experiment: FACS, CHO-K1-cyno DLL3 cells, 0.16 nM antibody

Binder | MFI [MFI]
B1 | 1140
B2 | 1330

target: monkey DLL3 on CHO-K1-cyno DLL3 cells (cynomolgus monkey); experiment: FACS, CHO-K1-cyno DLL3 cells, 0.032 nM antibody

Binder | MFI [MFI]
B1 | 410
B2 | 428

target: monkey DLL3 on CHO-K1-cyno DLL3 cells (cynomolgus monkey); experiment: FACS, CHO-K1-cyno DLL3 cells, 0.0064 nM antibody

Binder | MFI [MFI]
B1 | 195
B2 | 194

target: monkey DLL3 on CHO-K1-cyno DLL3 cells (cynomolgus monkey); experiment: FACS, CHO-K1-cyno DLL3 cells, 0.00128 nM antibody

Binder | MFI [MFI]
B1 | 140
B2 | 142

target: human DLL1 protein (Acro, Cat. No. DL1-H52H8) (human) (UniProt O00548); experiment: ELISA, coated hDLL1; maximum over 0.1, 1, 10, 100 nM antibody
Sequence (O00548 18-540 limits assumed): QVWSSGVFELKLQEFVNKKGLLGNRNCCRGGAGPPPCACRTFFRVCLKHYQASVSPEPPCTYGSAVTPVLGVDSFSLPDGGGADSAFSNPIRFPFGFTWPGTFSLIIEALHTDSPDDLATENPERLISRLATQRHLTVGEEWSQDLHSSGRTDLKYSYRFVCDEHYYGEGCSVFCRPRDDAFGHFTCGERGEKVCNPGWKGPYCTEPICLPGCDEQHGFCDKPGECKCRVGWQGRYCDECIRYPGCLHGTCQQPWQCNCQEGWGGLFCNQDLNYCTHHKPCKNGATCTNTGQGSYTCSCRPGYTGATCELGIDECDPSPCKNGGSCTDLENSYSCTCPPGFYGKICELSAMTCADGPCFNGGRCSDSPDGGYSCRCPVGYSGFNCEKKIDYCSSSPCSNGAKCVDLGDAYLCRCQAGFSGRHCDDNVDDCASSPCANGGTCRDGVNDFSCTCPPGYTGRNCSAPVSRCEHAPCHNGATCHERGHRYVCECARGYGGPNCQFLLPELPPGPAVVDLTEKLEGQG

Binder | Emax of OD450 nm binding value [OD450 nm]
B1 | 0.43
B2 | 0.47

target: human DLL4 protein (Acro, Cat. No. DL4-H5227) (human) (UniProt Q9NR61); experiment: ELISA, coated hDLL4; maximum over 0.1, 1, 10, 100 nM antibody
Sequence (Q9NR61 27-524 limits assumed): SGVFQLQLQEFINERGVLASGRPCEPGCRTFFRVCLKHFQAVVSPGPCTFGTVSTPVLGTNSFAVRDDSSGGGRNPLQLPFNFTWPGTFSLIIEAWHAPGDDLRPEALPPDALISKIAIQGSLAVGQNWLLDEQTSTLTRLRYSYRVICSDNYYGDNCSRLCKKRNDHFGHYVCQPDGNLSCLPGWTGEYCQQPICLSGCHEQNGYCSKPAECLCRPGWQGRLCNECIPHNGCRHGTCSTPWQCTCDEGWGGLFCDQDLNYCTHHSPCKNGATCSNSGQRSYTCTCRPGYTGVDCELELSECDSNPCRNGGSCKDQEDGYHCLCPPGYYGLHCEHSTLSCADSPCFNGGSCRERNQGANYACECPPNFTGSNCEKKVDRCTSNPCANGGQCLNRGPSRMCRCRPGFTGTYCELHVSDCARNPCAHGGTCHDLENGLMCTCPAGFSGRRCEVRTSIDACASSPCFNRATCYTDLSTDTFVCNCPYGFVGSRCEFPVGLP

Binder | Emax of OD450 nm binding value [OD450 nm]
B1 | 0.67
B2 | 0.64
